Experimental data taken from patent US20210228629A1.

How the values were obtained:
[1] = target: BCMA expressed on K562 Very High-BCMA cells (UniProt Q02223); assay: cell-based or functional assay
BCMA protein = BCMA protein (UniProt Q02223); assay: cell-based or functional assay

CD107a+ cells (%), degranulation after 18 hours [1]: 3.82%
CD107a+ cells (%), degranulation after 18 hours (BCMA protein): 22.2%
B1: anti-BCMA CAR (co-stimulatory domain not specified for the experiment) (protein, part only; not given: CAR hinge, transmembrane, signaling domains, part only)
chain, part: DIVLTQSPPSLAMSLGKRATISCRASESVTILGSHLIHWYQQKPGQPPTLLIQLASNVQTGVPARFSGSGSRTDFTLTIDPVEEDDVAVYYCLQSRTIPRTFGGGTKLEIKGSTSGSGKPGSGEGSTKGQIQLVQSGPELKKPGETVKISCKASGYTFTDYSINWVKRAPGKGLKWMGWINTETREPAYAYDFRGRFAFSLETSASTAYLQINNLKYEDTATYFCALDYSYAMDYWGQGTSVTVSS
